In article PMC4961952 (Scientific Reports, 2016):

Target: the molecule itself
Test: SEC; analytical gel filtration of the TEV-cleaved fusion protein on a Superdex 200 Increase 10/300 column

B1: TH1(ZZ): recombinant human tyrosine hydroxylase isoform 1, purified on TALON resin as His6-ZZ-TH1 and cleaved by TEV protease (enzyme)
chain: not shown
notes: residues glycine and alanine left in front of the starting methionine after removal of the fusion partner (told in words); tyrosine hydroxylase isoform 1 (TH1), human, 497 residues (Met1-Gly497); cDNA from pET-TH cloned into pET-ZZ-1a; extra glycine in position 2 from cloning; numbers count on: human TH1; Contains cobalt from the TALON resin (0.70 mol/mol subunit); After cleavage the chain is the …
  stoichiometry N: 4

B2: TH1(MBP): recombinant human tyrosine hydroxylase isoform 1, purified on amylose resin as His6-MBP-TH1 and cleaved by TEV protease (enzyme)
chain: not shown
notes: residues glycine and alanine left in front of the starting methionine after removal of the fusion partner (told in words); tyrosine hydroxylase isoform 1 (TH1), human, 497 residues (Met1-Gly497); cDNA from pET-TH cloned into pET-MBP-1a; extra glycine in position 2 from cloning; numbers count on: human TH1; Iron-containing preparation (0.25 mol/mol subunit), no cobalt; After cleavage the chain is …
  stoichiometry N: 4
